In the supplement of paper PMC9170038:

Each sequence was assayed on K4 kissing-loop RNA reporter (assay: apparent KD of K4 kissing-loop reporter; higher = weaker reporter binding). Conditions: Eterna round: R107; input ligand: theophylline 20 uM.
Procedure: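 RNA-MaP round R107: designed RNA switches with theophylline, tryptophan, arginine or FMN aptamers are transcribed on-chip within common flanks. They are titrated with a labelled K4 kissing-loop RNA reporter in RNA-MaP buffer (100 mM Tris pH 7.5, 80 mM KCl, 4 mM MgCl2), without ligand or with the indicated ligand. Median apparent KD per design.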
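Note: bound reporter read as fluorescence of individual clusters on recovered sequencing chips by microscopy, with normalized cluster intensities fitted with a binding model.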

Sequence	apparent KD of K4 kissing-loop reporter
AACAUUUUCAGAAGGAGCGUGAAUUAUUCAUAAUUAUAUUAUACGAGUGAUGUUCGUAUUUCACAGGUAGGUCGCUGAUAUAGUA [#02 K4 Arginine B Same State]	121 nM
CGCCACAACUGAAGGAGCGCGCCAGUGAUGUUGGACGGCUUCGUCAAGGAAACUGCACCGGUGCAGGUAGGUCGCAGUGCGUGGU [Eranarve]	162 nM
GUCUCGAGUGAUGUUCGGGUCGAUUGGGAAGGAGCGCCCGGAAGGGCAGGUAGGUCGCCCGGGCCGCGCGGGAAACCGCGCGUCC [#2 Same State - Arginine A Attempt #8 (HarryS)]	140 nM
UGAUAGGACAGAAGGAGCGGGAGUGAUGUUCCCAAAAGGAUAAGGUGUCAAAAGACACCCUCCCAGGUAGGUCGCUGUCCUAUCU	532 nM
UCGAAGGAUGGAAGGAGCGCUCGUCAGUCCUGCGAGUGAUGUUCGUGGGUAAAUAUUCGCGAGCAGGUAGGUCGCCAUCUCGAAC [Erbemaa]	122 nM
AAGGACUGCCAGGGAACACACUCAUUAUGGGAGGAUAUGUUAGCUGACAGAAGGCCCAGUGAUGUUGGGCCGGCGGGCUGUCAGG [Diargean]	237 nM
CUGGGUUGACGAAAAGUCAACAAAAGAGAAGGAGCGCACGAAAGUGCAGGUAGGUCGCUCAGUCCAGUGAUGUUGGAUCAUCCAG [#SwitchBubble 11 #K4Late]	454 nM
GAGGUGCUGAUGCGGUGGCCGGUGGUCGUGCGAGGACCGGUACGGCCGCCACUCGCAUGAGUGAUGUUCAUGUGUCGUCGUCGUC [whbob_EX_Tryp_A_t3]	117 nM

Same assay, conditions: Eterna round: R107; input ligand: tryptophan 2.4 mM

Sequence	apparent KD of K4 kissing-loop reporter
UGGCGACUGCCAGUGAUGUUGGCCGUCGUACGAGGACCGGUACGGCCGCCACUCGUCCUGGUUUAGGCUCCGCCUUCACAUCAGG [Beterire]	309 nM
GAGGAUAGCGGAAGGAGCGAGUAAUGGAGUGAUGUUCCAAUCAAUAAAACACGAUAGAGUGCUCAGGUAGGUCGCCGUGGUGGUU [Exclusion Argiie B GF 13]	111 nM
GGAGUAACCUGGGAUACCAGUCGGAGGCCUAGGGAUCGGAGUGAUGUUCUGGGAUGUUUCGGCCCUUGGCAGCUCUGGGUCUCCG [#2 Exclusion - Theophylline B Attempt #2 (HarryS)]	144 nM
ACAUAGGAUGGAAGGAGCGCUCGUCAGUCCUGCGAGUGAUGUUCGUGGGUAAAUAUUCGCGAGCAGGUAGGUCGCCAUCUUGAAA [Vedi]	164 nM
UGAUACCAGACUGAUACCAGCCAGUGAUGUUGGCAAUAACCAAGGCGAGUCAAAGACUCGGGCCCUUGGCAGCAGUCUGGUAUCU [TheoBX 6 #SwitchBubble #StaticStem]	136 nM
AGGAUGUAGUGAUGUUAUAUAAGAAGUAAACGAGGACCGGUACGGCCGCCACUCGAAGCGGCUACUAGCGUGUUGCGAGGUGCGC [ExTryptoA.Cd]	197 nM
AAGUGAUGUUGUAGUGAUGUUGUGAUGUUGCAGGAUAUAUAGUGAUGUAGAAGGGUAUGUACAGUUUUUUUUUUUGAGUGAUGAU [vvcvmullin]	70.3 nM
AGUGUUAGGUUAGAUACCAGCCGUCUGUAGAUAAUCCUCAGACCGCCAGUGAUGUUGGCAGGCCCUUGGCAGCUAACAGAACAGA [Orbediqu]	214 nM
UCCUGCUGUCUGCCACGAAAGUGGAUUGAUACCAGAGUCGAAAGACUCCCUUGGCAGCGAGUGAUGUUCGAAGCAGGUAAAUAAA [MatMod 2 - Jieux - Exclusion - Theophylline A]	188 nM
AGUGCUAUGACGGCCGCCACUGAUUACCAGUGAUGUUGGUAGUCCAUUUACGACUUCCUGAUAACCAGGACCGGGUCAUAGGUCG [Tryp B Ex t2]	201 nM
UCCUGCAAUCGUCCACGAAAGUGGAUCGAUACCAGAGUCGAAAGACUCCCUUGGCAGCGAGUGAUGUUCGAAGCAGGUAAAUAAA	391 nM
GCUAAGGAGUGAUGUUCCAAGUGAUGUUAACGAGGACCGGUACGGCCGCCACUCGAUACGGCCGGAAAGUAAGAUAAACUACAGU [Same State - Tryptophan A (Freestyle 4)]	64.7 nM
ACCGCAUUGGGCUGAUCCCAAUGCGCUGGUCGAGGACCGGUACGGCCGCCACUCGUCCAGUGAUGUUGGACUAGGGCAACUGAAG [Veraceer]	83.3 nM
UGACUGGACUGAAGGAGCGGGCGAGACAAAGUCUCGAACUCUUAGUGAUGUUAGGAAAUAACCCAGGUAGGUCGCAGUCUAGUCU	188 nM
AAAAUAAUCCAGUGAUGUUGGUAACCAGAUACCAGCGACGAAAGUCGCCCUUGGCAGCUGUGGACGUACAAAAUAAGUACGUCCU	312 nM
AGACUACCACACUGUCAAUAGACAGUGAGCUAGGAUAUGCUGAUAAGCAGAAGGAGUGAUGUUCCUGGGUAGUCAAUAAAAUAAU [FmnAX 13 G29+G67]	342 nM

Sequence	apparent KD of K4 kissing-loop reporter
AAUUCAAACUGAAGGAGCGAGCAUUUUGGAGUGAUGUUCCAAGCGAGUGAUGUUCGCAUAGCUCAGGUAGGUCGCAGUUUGGAUA [Same State Arginie B GF 14]	139 nM
GAUUAAUAAGAGGAUACCAGUACAAAUAAAGUACAUUAAUAGUAGAGUGAUGUUCUAAAGUACCCUUGGCAGCUUAGAGUAAGUU [ExTheophylB.A]	94.4 nM
GGGAGGAGUGGUGUUGAUUAAGAAGCGGAAGGAGCGCCGAAGAAGGCAGGUAGGUCGCCGGAAUAUAGUGAUGUUAUAUAGAGGG [ExArg.E]	252 nM
AAAGUAUACUGAAGGAGCGAGUAGUGGAAACAUAAACUCAUUGCGAGUGAUGUUCGCAGUACUCAGGUAGGUCGCGGUAAUCGUA [Exclusion Arginine B Gf 12]	558 nM
AGACUACCACACUGUCAAUAGACAGUGAACUAGGAUAUGCUGAUAAGCAGAAGGAGUGAUGUUCCUAAAGGUAGUCAAAUAUAAU [FmnAX 14 #SwitchBubble #StaticStem #K4Early]	351 nM
GGCGGCCGCGCGAAAGCGCGGCCGGCCGAUACCAGCGCGCCGGCGCGCCCUUGGCAGCGGCGCCGAGUGAUGUUCGGCCUGCCGU [#2 Same State - Theophylline A Attempt #12 (HarryS)]	125 nM
GCAUGGGUGCUUGCACAAGUGAUGUUUGGGCGAGGACCGGUACGGCCGCCACUCGUACGUUUAGUUAAAAGACAUCAUGCGAGUC [theeternabot_exclusion_KL_Trp_A_11]	164 nM
UUAGAGAUCUCAGGAUAUCAGUGAUGUUGAGAUUCAGAUCUGAGAUAGAAUUCUAUCUCAGAUCAAUGAGAAGGGAGAUCUCAUU [AK4.4 Exc FMN B]	443 nM
AACAUUUUCAGAAGGAGCGUGAAUUAUUCAUAAUUAUAUUAUACGAGUGAUGUUCGUAUUUCACAGGUAGGUCGCUGAUAUAGUA [#02 K4 Arginine B Same State]	93.1 nM
CGCCACAACUGAAGGAGCGCGCCAGUGAUGUUGGACGGCUUCGUCAAGGAAACUGCACCGGUGCAGGUAGGUCGCAGUGCGUGGU [Eranarve]	195 nM
GUCUCGAGUGAUGUUCGGGUCGAUUGGGAAGGAGCGCCCGGAAGGGCAGGUAGGUCGCCCGGGCCGCGCGGGAAACCGCGCGUCC [#2 Same State - Arginine A Attempt #8 (HarryS)]	154 nM
UGAUAGGACAGAAGGAGCGGGAGUGAUGUUCCCAAAAGGAUAAGGUGUCAAAAGACACCCUCCCAGGUAGGUCGCUGUCCUAUCU	544 nM
UCGAAGGAUGGAAGGAGCGCUCGUCAGUCCUGCGAGUGAUGUUCGUGGGUAAAUAUUCGCGAGCAGGUAGGUCGCCAUCUCGAAC [Erbemaa]	117 nM
AAGGACUGCCAGGGAACACACUCAUUAUGGGAGGAUAUGUUAGCUGACAGAAGGCCCAGUGAUGUUGGGCCGGCGGGCUGUCAGG [Diargean]	177 nM
CUGGGUUGACGAAAAGUCAACAAAAGAGAAGGAGCGCACGAAAGUGCAGGUAGGUCGCUCAGUCCAGUGAUGUUGGAUCAUCCAG [#SwitchBubble 11 #K4Late]	346 nM
GAGGUGCUGAUGCGGUGGCCGGUGGUCGUGCGAGGACCGGUACGGCCGCCACUCGCAUGAGUGAUGUUCAUGUGUCGUCGUCGUC [whbob_EX_Tryp_A_t3]	172 nM
